Target: T1, Axl-Fc (R&D Systems) (UniProt P30530-2 26-440, limits assumed)
T1 construct: Bought reagent (R&D Systems, Minneapolis); also called Axl-Fc receptor; not shown: Fc part of the bought fusion
T1 sequence (looked up): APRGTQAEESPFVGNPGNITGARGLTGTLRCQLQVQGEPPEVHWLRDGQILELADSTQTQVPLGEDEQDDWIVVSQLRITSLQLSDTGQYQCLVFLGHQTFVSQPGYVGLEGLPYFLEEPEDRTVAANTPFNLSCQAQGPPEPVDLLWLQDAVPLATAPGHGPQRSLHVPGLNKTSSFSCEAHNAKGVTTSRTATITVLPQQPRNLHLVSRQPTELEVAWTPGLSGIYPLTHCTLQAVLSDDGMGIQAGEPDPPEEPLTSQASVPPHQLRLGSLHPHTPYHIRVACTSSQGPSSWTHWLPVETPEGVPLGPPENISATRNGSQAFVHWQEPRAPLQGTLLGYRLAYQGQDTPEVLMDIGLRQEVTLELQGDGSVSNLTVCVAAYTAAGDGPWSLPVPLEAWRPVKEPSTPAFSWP
Test: EIA: plate coated with Axl-Fc, Gas6_Flag detected with HRP anti-Flag M2 antibody, OD490

EC50: ~0.02 µg/mL
B1: human Gas6_Flag (human Growth Arrest Specific Gene 6 protein with a Flag epitope tag at the C-terminus) (ligand)
chain: ALLPAREATQFLRPRQRRAFQVFEEAKQGHLERECVEELCSREEAREVFENDPETDYFYPRYLDCINKYGSPYTKNSGFATCVQNLPDQCTPNPCDRKGTQACQDLMGNFFCLCKAGWGGRLCDKDVNECSQENGGCLQICHNKPGSFHCSCHSGFELSSDGRTCQDIDECADSEACGEARCKNLPGSYSCLCDEGFAYSSQEKACRDVDECLQGRCEQVCVNSPGSYTCHCDGRGGLKLSQDMDTCEDILPCVPFSVAKSVKSLYLGRMFSGTPVIRLRFKRLQPTRLVAEFDFRTFDPEGILLFAGGHQDSTWIVLALRAGRLELQLRYNGVGRVTSSGPVINHGMWQTISVEELARNLVIKVNRDAVMKIAVAGDLFQPERGLYHLNLTVGGIPFHEKDLVQPINPRLDGCMRSWNWLNGEDTTIQETVKVNTRMQCFSVTERGSFYPGSGFAFYSLDYMRTPLDVGTESTWEVEVVAHIRPAADTGVLFALWAPDLRAVPLSVALVDYHSTKKLKKQLVVLAVEHTALALMEIKVCDGQEHVVTVSLRDGEATLEVDGTRGQSEVSAAQLQERLAVLERHLRSPVLTFAGGLPDVPVTSAPVTAFYRGCMTLEVNRRLLDLDEAAYKHSDITAHSCPPVEPAAADYKDDDDK
notes: Expressed from full-length cDNA in HEK293 cells grown with vitamin K1 and purified on anti-Flag M2 resin; 2'; also called Gas6_tag

Reference: patent US20040157774A1 (published 2004)
